Experimental findings from US20170189507A1 are described below.

The target in the assay is HLA-A*24 (human). In words: UV-ligand exchange ELISA. In general terms: ELISA stands for enzyme-linked immunosorbent assay.
For the molecule EYPLVINTL [peptide SEQ ID No 219], the peptide exchange yield was in the range of 50 to 75%.

With RYFKGLVF [peptide SEQ ID No 188], the peptide exchange yield lay within 50 to 75%.

Molecule LYLDIINLF [peptide SEQ ID No 181] registered a peptide exchange yield above 75%.

LYLKLWNLI [peptide SEQ ID No 214] returned a peptide exchange yield of 50 to 75%.

For the molecule RYPDNLKHL [peptide SEQ ID No 286], the peptide exchange yield fell in the range of 20 to 49%.

For LFIPSSKLLFL [peptide SEQ ID No 171], the peptide exchange yield was 50 to 75%.

TYTTVPRVAF [peptide SEQ ID No 172] showed a peptide exchange yield above 75%.

Molecule VYTLDIPVL [peptide SEQ ID No 160] gave a peptide exchange yield above 75%.

Turning to LYNKGFIYL [peptide SEQ ID No 159], the peptide exchange yield was above 75%.

As to YYVESGKLF [peptide SEQ ID No 166], the peptide exchange yield was above 75%.

In turn, EFGSLHLEFL [peptide SEQ ID No 194] gave a peptide exchange yield below 20%.

The molecule VFKASKITF [peptide SEQ ID No 191] came in with a peptide exchange yield of 50 to 75%.

IYQLDTASI [peptide SEQ ID No 182] displayed a peptide exchange yield of 50 to 75%.

KYPVEWAKF [peptide SEQ ID No 289] showed a peptide exchange yield above 75%.

As for NYINRILKL [peptide SEQ ID No 167], the peptide exchange yield is above 75%.

IYTMIYRNL [peptide SEQ ID No 210] had a peptide exchange yield above 75%.

Take YYVYIMNHL [peptide SEQ ID No 225]: the peptide exchange yield fell in the range of 50 to 75%.

Molecule IYKVGAPTI [peptide SEQ ID No 185] gave a peptide exchange yield of 50 to 75%.

Turning to VYVSDIQEL [peptide SEQ ID No 288], the peptide exchange yield fell in the range of 50 to 75%.

KYMVYPQTF [peptide SEQ ID No 267]: the peptide exchange yield is above 75%.

Molecule IFIEVFSHF [peptide SEQ ID No 178] gave a peptide exchange yield of 50 to 75%.

In the case of YFDKVVTL [peptide SEQ ID No 215], the peptide exchange yield fell in the range of 20 to 49%.

In the case of IYSWILDHF [peptide SEQ ID No 173], the peptide exchange yield is above 75%.

The molecule DYLKGLASF [peptide SEQ ID No 163] registered a peptide exchange yield above 75%.

IFPQFLYQF [peptide SEQ ID No 186] had a peptide exchange yield above 75%.

Molecule AYLHSHALI [peptide SEQ ID No 274] gave a peptide exchange yield above 75%.

As for YYLEVGKTLI [peptide SEQ ID No 211], the peptide exchange yield is above 75%.

TYIKPISKL [peptide SEQ ID No 273] had a peptide exchange yield of 50 to 75%.

In the case of IYDDSFIRPVTF [peptide SEQ ID No 180], the peptide exchange yield was 50 to 75%.

For VFTSTARAF [peptide SEQ ID No 183], the peptide exchange yield fell in the range of 50 to 75%.

With RYLNKAFHI [peptide SEQ ID No 284], the peptide exchange yield was 50 to 75%.

Turning to KFVDSTFYL [peptide SEQ ID No 282], the peptide exchange yield was above 75%.

As for EYQENFLSF [peptide SEQ ID No 206], the peptide exchange yield was 50 to 75%.

Molecule VHIPEVYLI [peptide SEQ ID No 205] yielded a peptide exchange yield of 50 to 75%.

Molecule RYSTGLAGNLL [peptide SEQ ID No 221] yielded a peptide exchange yield of 50 to 75%.

The molecule QYSSVFKSL [peptide SEQ ID No 216] showed a peptide exchange yield above 75%.

With EYINQGDLHEF [peptide SEQ ID No 275], the peptide exchange yield is 50 to 75%.

AYTLIAPNI [peptide SEQ ID No 169] returned a peptide exchange yield of 50 to 75%.

Molecule VFQNFPLLF [peptide SEQ ID No 184] yielded a peptide exchange yield above 75%.

Molecule VYRDETGELF [peptide SEQ ID No 226] displayed a peptide exchange yield of 50 to 75%.

MYDSYWRQF [peptide SEQ ID No 179] had a peptide exchange yield above 75%.

Regarding RFHPTPLLL [peptide SEQ ID No 193], the peptide exchange yield is above 75%.

In turn, VFTRVSSFL [peptide SEQ ID No 162] showed a peptide exchange yield of 50 to 75%.

KYIPYKYVI [peptide SEQ ID No 223] had a peptide exchange yield of 50 to 75%.

Regarding RYISDQLFTNF [peptide SEQ ID No 278], the peptide exchange yield was above 75%.

IFLDYEAGTLSF [peptide SEQ ID No 227]: the peptide exchange yield was above 75%.

As for GFFIFNERF [peptide SEQ ID No 190], the peptide exchange yield fell in the range of 50 to 75%.

With KYQDILETI [peptide SEQ ID No 168], the peptide exchange yield is above 75%.

Regarding WYVNGVNYF [peptide SEQ ID No 189], the peptide exchange yield fell in the range of 20 to 49%.

As to KYTSWYVAL [peptide SEQ ID No 228], the peptide exchange yield is above 75%.

FYSRLLQKF [peptide SEQ ID No 203] returned a peptide exchange yield of 50 to 75%.

The molecule RYPDNLKHLYL [peptide SEQ ID No 280] registered a peptide exchange yield above 75%.

Take SYALLTYMI [peptide SEQ ID No 192]: the peptide exchange yield was above 75%.

TYLRDQHFL [peptide SEQ ID No 187] showed a peptide exchange yield above 75%.

In turn, VYGFQWRHF [peptide SEQ ID No 276] returned a peptide exchange yield above 75%.

For HYSQELSLLYL [peptide SEQ ID No 158], the peptide exchange yield is above 75%.

For TYIESASEL [peptide SEQ ID No 279], the peptide exchange yield was 50 to 75%.

Consider VYEDQVGKF [peptide SEQ ID No 170], for which the peptide exchange yield was 20 to 49%.

As for FFPPTRQMGLLF [peptide SEQ ID No 217], the peptide exchange yield was above 75%.

Molecule TYGDAGLTYTF [peptide SEQ ID No 283] displayed a peptide exchange yield of 50 to 75%.

QYLENLEKL [peptide SEQ ID No 224]: the peptide exchange yield was 50 to 75%.

As to VYPWLGALL [peptide SEQ ID No 177], the peptide exchange yield is above 75%.

On to TYTQDFNKF [peptide SEQ ID No 208], for which the peptide exchange yield was 50 to 75%.

As for QYLQDAYSF [peptide SEQ ID No 272], the peptide exchange yield was above 75%.

Take LYLDKATLI [peptide SEQ ID No 198]: the peptide exchange yield is 50 to 75%.

The molecule IYLVSIPEL [peptide SEQ ID No 161] displayed a peptide exchange yield above 75%.

Consider KFSSFSLFF [peptide SEQ ID No 164], for which the peptide exchange yield lay within 50 to 75%.

DYTTWTALL [peptide SEQ ID No 165] showed a peptide exchange yield above 75%.

For the molecule LYHDIFSRL [peptide SEQ ID No 271], the peptide exchange yield was above 75%.
